Laboratory results as given in patent US20240408194A1, “DNA ORIGAMI SUBUNIT VACCINE FOR PREVENTION OF SARS-CoV-2 VARIANT INFECTION” (priority 2021, published 2024).

Tests used:
[1] = molecular target: T1, SARS-CoV-2 spike protein receptor binding domain (RBD), monomeric (SARS-CoV-2), P0DTC2
[2] = molecular target: T1, SARS-CoV-2 spike protein receptor …; remark: listed apart in the source

B1: DNA-LCB (designed binder)
chain: CDKEWILQKIYEIMRLLDELGHAEASMRVSDLIYEFMKKGDERLLEEAERLLEEVER
modifications: not checked
Binder B1 has a protein coverage [1] of 71.6% and a Fluorescence (average) [2] of 2.08e+07.
